Numbering of substitutions follows the chain as printed.

The data set “crystal structure” deals with the molecule itself. In words: crystal structure.
The target in data set [1] is T1, Sulfolobus islandicus PilT N-terminal-domain-containing ATPase (SisPINA), untagged (Sulfolobus islandicus REY15A, UniProt F0NID4 1-505).
T1 sequence (looked up): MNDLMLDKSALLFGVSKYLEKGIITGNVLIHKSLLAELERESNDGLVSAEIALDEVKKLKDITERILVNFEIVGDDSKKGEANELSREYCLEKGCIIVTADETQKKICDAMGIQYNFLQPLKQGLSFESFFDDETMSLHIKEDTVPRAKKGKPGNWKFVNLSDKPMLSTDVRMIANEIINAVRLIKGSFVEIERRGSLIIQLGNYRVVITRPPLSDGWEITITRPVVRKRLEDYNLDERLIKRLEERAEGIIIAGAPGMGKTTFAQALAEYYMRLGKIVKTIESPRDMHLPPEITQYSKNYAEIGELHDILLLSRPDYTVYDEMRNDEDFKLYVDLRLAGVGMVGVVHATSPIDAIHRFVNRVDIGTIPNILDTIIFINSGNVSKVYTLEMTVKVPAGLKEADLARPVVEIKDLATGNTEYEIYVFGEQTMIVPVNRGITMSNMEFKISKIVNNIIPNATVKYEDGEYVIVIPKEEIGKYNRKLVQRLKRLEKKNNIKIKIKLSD
Put plainly: pull-down.

B1: SisPINAK261A, Walker A mutant of SisPINA (enzyme, Sulfolobus islandicus REY15A, UniProt F0NID4 1-505, looked up)
chain: T1 sequence (looked up) with K261A
On to B1, for which the “stoichiometry N” value in “crystal structure” came to 6.

B2: N-terminal His-tagged SisHjc (enzyme, Sulfolobus islandicus REY15A, UniProt F0NID3 1-143, looked up)
chain: MNAKKRKGSAVERNIVGKLRDKGFAVVRAPASGSKRKDPIPDIIALKSGVIILIEMKSRKDKEGKIYVRREQAEGIMEFARKSGGTLFLGVKKPGVLKFIPFDKLRRTETGNYVADSEIEGLDLEDLVRLVEAKVSKTLDNFL
Consider B2, for which the binding result in data set [1] is “binds”.

Broadly, the stoichiometry N is the number of molecules, sites or subunits per partner or assembly.

For the origin of these results see article PMC5565510 (Journal of molecular biology, 2017).
